Results: PMC8973899

Biological target: BD-GmSPX8 (soybean (Glycine max))

luciferase (LUC) signal of E-box-LUC in N. benthamiana leaves with PSK-GmPTF1 and PSK-GmSPX8 against PSK-GmPTF1 alone: 50% | β-galactosidase activity of yeast cells AH109 with pGBKT7-BD-GmPTF1 and pGADT7-AD-GmSPX8 against pGBKT7-BD-GmPTF1 alone: 2 times
Substance: AD-GmPTF1 (natural protein)
